Laboratory results published in publication PMC4378939.

Experiments:
[1] = target: single domain antibody against GFP with a six histidine-tag at the C-terminal (GFP-Nb) (llama); test: SPR; GFP-Nb diluted in NTA running buffer of pH 4.0-10.5, then captured on Ni:NTA chip; 30 nM GFP as analyte; constants given for the whole pH range
[2] = target: single domain antibody against GFP with a six histidine-tag at the C-terminal (GFP-Nb) (llama); test: SPR; GFP-Nb captured on Ni:NTA chip; 30 nM GFP diluted in NTA running buffer with different NaCl concentrations (up to 1 M) as analyte; constants given for all NaCl concentrations
[3] = target: single domain antibody against GFP with a six histidine-tag at the C-terminal (GFP-Nb) (llama); test: SPR; BIAcore X100, 25°C; GFP-Nb (~3 nM, ~50 R.U.) captured by its His tag on Ni:NTA chip, GFP as analyte (0.1-1000 nM), 30 μl/min; 10 mM HEPES pH 7.4, 0.15 M NaCl, 50 μM EDTA, 0.05% tween 20; kon and koff from 1:1 fit, KD from end-point response (Hill equation)
[4] = target: single domain antibody against GFP with a six histidine-tag at the C-terminal (GFP-Nb) (llama); test: SPR; BIAcore X100, 25°C; GFP-Nb captured by its His tag on anti-polyhistidine antibody amine-coupled to a CM5 chip, GFP as analyte, 30 μl/min; 10 mM HEPES pH 7.4, 0.15 M NaCl, 0.05% tween 20; kon and koff from 1:1 fit, KD from end-point response (Hill equation)
[5] = target: single domain antibody against GFP with a six histidine-tag at the C-terminal (GFP-Nb) (llama); test: SPR; GFP-Nb heated for 30 min at 25-100°C and cooled 30 min at room temperature, then captured on Ni:NTA chip; 30 nM GFP as analyte; NTA running buffer, 25°C; constants given for the whole temperature range
[6] = target: single domain antibody against GFP with a six histidine-tag at the C-terminal (GFP-Nb) (llama); test: SPR; BIAcore X100, 25°C; GFP-Nb amine-coupled to a CM5 chip (~2500 R.U.), GFP as analyte (0.2-1000 nM; 10 nM with dissociation followed for 36000 s for koff); 10 mM HEPES pH 7.4, 0.15 M NaCl, 0.05% tween 20; KD from end-point response (Hill coefficient 1)

single domain antibody against GFP with a six histidine-tag at the C-terminal (GFP-Nb) (llama), sequence (heavy, as listed by the source): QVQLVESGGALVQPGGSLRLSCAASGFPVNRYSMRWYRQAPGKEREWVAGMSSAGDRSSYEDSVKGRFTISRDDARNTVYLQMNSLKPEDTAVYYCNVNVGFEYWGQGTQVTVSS

- koff [1]: 0.00064 s⁻¹
- kon [1]: 1.4e+06 M⁻¹ s⁻¹
- koff [2]: 0.00063 s⁻¹
- kon [2]: 1.5e+06 M⁻¹ s⁻¹
- Kd [3]: 6.1 nM
- koff [3]: 0.00071 s⁻¹
- kon [3]: 1.1e+06 M⁻¹ s⁻¹
- Kd [4]: 5.5 nM
- koff [4]: 0.00029 s⁻¹
- kon [4]: 1e+06 M⁻¹ s⁻¹
- koff [5]: 0.00063 s⁻¹
- kon [5]: 1.5e+06 M⁻¹ s⁻¹
- Kd [6]: 9.6 nM
- koff [6]: 1.4e-05 s⁻¹
Substance: Green Fluorescent Protein (GFP) (from UniProt P42212 1-238) (natural protein)
